First the molecules themselves.
T1: human NL5_(ECTO) (NL4(Y); Gln42-Glu602), immobilised for SPR (human, UniProt Q8NFZ3-1 42-602, biotin on the Avitag (in vivo biotinylation by BirA))
T1 chain: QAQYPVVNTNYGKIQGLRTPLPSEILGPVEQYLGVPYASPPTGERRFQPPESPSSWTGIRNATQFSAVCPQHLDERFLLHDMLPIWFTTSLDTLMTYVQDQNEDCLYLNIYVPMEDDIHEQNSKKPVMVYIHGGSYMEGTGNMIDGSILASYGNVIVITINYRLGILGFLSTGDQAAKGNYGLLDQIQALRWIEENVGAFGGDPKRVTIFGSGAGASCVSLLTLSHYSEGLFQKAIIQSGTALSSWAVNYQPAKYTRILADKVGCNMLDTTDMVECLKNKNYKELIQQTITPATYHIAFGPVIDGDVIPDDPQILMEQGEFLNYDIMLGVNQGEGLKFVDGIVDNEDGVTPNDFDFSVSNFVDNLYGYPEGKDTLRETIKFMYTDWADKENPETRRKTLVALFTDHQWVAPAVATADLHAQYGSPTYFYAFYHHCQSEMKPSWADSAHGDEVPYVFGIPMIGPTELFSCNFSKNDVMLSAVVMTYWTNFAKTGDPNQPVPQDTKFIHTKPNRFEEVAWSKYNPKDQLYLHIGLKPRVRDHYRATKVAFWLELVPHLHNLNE

T2: human NL1(+A1–B)_(ECTO), immobilised for SPR (human, biotin on the Avitag (in vivo biotinylation by BirA))
T2 chain: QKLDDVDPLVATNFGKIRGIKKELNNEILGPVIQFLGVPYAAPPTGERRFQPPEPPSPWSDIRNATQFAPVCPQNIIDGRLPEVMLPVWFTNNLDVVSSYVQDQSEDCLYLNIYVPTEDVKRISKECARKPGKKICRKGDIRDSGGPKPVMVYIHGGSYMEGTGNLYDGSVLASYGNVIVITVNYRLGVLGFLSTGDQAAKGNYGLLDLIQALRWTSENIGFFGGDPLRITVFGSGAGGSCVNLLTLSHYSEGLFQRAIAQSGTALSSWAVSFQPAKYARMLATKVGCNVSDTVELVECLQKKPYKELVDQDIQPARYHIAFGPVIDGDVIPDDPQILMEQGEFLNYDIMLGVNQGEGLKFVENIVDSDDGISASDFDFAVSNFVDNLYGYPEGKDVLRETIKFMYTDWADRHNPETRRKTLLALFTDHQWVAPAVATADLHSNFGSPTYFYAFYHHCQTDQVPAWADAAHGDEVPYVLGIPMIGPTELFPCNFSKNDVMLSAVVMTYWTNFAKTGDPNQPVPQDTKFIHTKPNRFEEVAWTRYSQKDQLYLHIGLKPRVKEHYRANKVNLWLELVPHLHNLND

T3: human NL1(+A2–B)_(ECTO), immobilised for SPR (human, biotin on the Avitag (in vivo biotinylation by BirA))
T3 chain: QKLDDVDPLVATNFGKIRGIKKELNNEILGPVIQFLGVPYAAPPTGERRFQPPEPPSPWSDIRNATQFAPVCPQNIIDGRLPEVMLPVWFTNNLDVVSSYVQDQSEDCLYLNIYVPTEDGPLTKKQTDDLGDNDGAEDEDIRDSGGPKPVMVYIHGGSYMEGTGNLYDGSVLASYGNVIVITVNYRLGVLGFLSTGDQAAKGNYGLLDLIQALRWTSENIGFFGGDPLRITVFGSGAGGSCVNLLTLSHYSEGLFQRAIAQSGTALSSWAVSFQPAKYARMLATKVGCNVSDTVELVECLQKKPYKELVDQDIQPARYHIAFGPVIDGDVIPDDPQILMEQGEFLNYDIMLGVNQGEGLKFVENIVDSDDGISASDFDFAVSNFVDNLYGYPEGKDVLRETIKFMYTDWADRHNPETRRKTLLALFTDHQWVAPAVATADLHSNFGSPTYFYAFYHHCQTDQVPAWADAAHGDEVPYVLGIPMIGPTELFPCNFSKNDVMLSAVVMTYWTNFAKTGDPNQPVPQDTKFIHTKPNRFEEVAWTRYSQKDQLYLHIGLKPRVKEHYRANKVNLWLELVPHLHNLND

T4: human NL1(+A1+A2–B)_(ECTO), immobilised for SPR (human, biotin on the Avitag (in vivo biotinylation by BirA))
T4 chain: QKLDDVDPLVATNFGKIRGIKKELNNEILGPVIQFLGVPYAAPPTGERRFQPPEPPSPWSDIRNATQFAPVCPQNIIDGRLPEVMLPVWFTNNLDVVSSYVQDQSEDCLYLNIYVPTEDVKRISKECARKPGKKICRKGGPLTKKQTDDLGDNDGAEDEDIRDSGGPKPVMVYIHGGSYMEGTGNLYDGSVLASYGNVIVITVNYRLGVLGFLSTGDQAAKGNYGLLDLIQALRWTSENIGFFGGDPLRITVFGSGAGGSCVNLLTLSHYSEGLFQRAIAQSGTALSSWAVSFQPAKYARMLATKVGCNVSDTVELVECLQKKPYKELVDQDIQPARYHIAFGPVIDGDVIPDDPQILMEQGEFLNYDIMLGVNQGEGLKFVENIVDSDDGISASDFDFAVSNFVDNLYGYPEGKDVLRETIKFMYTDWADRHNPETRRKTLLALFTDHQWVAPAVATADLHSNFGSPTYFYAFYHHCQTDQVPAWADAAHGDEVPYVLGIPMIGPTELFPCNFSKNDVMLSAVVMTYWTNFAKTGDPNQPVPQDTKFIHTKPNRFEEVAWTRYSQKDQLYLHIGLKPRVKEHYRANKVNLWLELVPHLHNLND

B1: human MDGA1 extracellular domain (MDGA1_(ECTO); Gln19-Lys925) (domain or fragment)
chain: QGVYAPAQAQIVHAGQACVVKEDNISERVYTIREGDTLMLQCLVTGHPRPQVRWTKTAGSASDKFQETSVFNETLRIERIARTQGGRYYCKAENGVGVPAIKSIRVDVQYLDEPMLTVHQTVSDVRGNFYQEKTVFLRCTVNSNPPARFIWKRGSDTLSHSQDNGVDIYEPLYTQGETKVLKLKNLRPQDYASYTCQVSVRNVCGIPDKAITFRLTNTTAPPALKLSVNETLVVNPGENVTVQCLLTGGDPLPQLQWSHGPGPLPLGALAQGGTLSIPSVQARDSGYYNCTATNNVGNPAKKTVNLLVRSMKNATFQITPDVIKESENIQLGQDLKLSCHVDAVPQEKVTYQWFKNGKPARMSKRLLVTRNDPELPAVTSSLELIDLHFSDYGTYLCMASFPGAPVPDLSVEVNISSETVPPTISVPKGRAVVTVREGSPAELQCEVRGKPRPPVLWSRVDKEAALLPSGLPLEETPDGKLRLERVSRDMSGTYRCQTARYNGFNVRPREAQVQLNVQFPPEVEPSSQDVRQALGRPVLLRCSLLRGSPQRIASAVWRFKGQLLPPPPVVPAAAEAPDHAELRLDAVTRDSSGSYECSVSNDVGSAACLFQVSAKAYSPEFYFDTPNPTRSHKLSKNYSYVLQWTQREPDAVDPVLNYRLSIRQLNQHNAVVKAIPVRRVEKGQLLEYILTDLRVPHSYEVRLTPYTTFGAGDMASRIIHYTEPINSPNLSDNTCHFEDEKICGYTQDLTDNFDWTRQNALTQNPKRSPNTGPPTDISGTPEGYYMFIETSRPRELGDRARLVSPLYNASAKFYCVSFFYHMYGKHIGSLNLLVRSRNKGALDTHAWSLSGNKGNVWQQAHVPISPSGPFQIIFEGVRGPGYLGDIAIDDVTLKKGECPRKQTDPNK
B2: human MDGA2 extracellular domain (MDGA2_(ECTO); Gln21-Lys927) (domain or fragment)
chain: QGVYAPPTVRIVHSGLACNIEEERYSERVYTIREGETLELTCLVTGHPRPQIRWTKTAGSASDRFQDSSVFNETLRITNIQRHQGGRYYCKAENGLGSPAIKSIRVDVYYLDDPVVTVHQSIGEAKEQFYYERTVFLRCVANSNPPVRYSWRRGQEVLLQGSDKGVEIYEPFFTQGETKILKLKNLRPQDYANYSCIASVRNVCNIPDKMVSFRLSNKTASPSIKLLVDDPIVVNPGEAITLVCVTTGGEPAPSLTWVRSFGTLPEKTVLNGGTLTIPAITSDDAGTYSCIANNNVGNPAKKSTNIIVRALKKGRFWITPDPYHKDDNIQIGREVKISCQVEAVPSEELTFSWFKNGRPLRSSERMVITQTDPDVSPGTTNLDIIDLKFTDFGTYTCVASLKGGGISDISIDVNISSSTVPPNLTVPQEKSPLVTREGDTIELQCQVTGKPKPIILWSRADKEVAMPDGSMQMESYDGTLRIVNVSREMSGMYRCQTSQYNGFNVKPREALVQLIVQYPPAVEPAFLEIRQGQDRSVTMSCRVLRAYPIRVLTYEWRLGNKLLRTGQFDSQEYTEYAVKSLSNENYGVYNCSIINEAGAGRCSFLVTGKAYAPEFYYDTYNPVWQNRHRVYSYSLQWTQMNPDAVDRIVAYRLGIRQAGQQRWWEQEIKINGNIQKGELITYNLTELIKPEAYEVRLTPLTKFGEGDSTIRVIKYSAPVNPHLREFHCGFEDGNICLFTQDDTDNFDWTKQSTATRNTKYTPNTGPNADRSGSKEGFYMYIETSRPRLEGEKARLLSPVFSIAPKNPYGPTNTAYCFSFFYHMYGQHIGVLNVYLRLKGQTTIENPLWSSSGNKGQRWNEAHVNIYPITSFQLIFEGIRGPGIEGDIAIDDVSIAEGECAKQDLATK
B3: human β-neurexin-1 LNS6 domain with SS4 (β-NRX1_(LNS6)(+4)) (domain or fragment)
chain: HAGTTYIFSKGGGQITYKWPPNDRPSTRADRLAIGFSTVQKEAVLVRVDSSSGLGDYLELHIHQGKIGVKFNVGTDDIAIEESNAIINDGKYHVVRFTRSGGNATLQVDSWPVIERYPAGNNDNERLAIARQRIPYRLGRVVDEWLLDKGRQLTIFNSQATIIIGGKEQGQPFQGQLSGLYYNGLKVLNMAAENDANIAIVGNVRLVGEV
B4: human β-neurexin-1 LNS6 domain lacking SS4 (β-NRX1_(LNS6)(–4); His85-Val265) (domain or fragment)
chain: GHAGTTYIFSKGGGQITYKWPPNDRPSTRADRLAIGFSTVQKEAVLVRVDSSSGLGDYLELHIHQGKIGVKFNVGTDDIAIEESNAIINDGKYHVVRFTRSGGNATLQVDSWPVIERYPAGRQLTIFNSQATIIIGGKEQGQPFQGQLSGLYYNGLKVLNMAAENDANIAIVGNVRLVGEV

By Kd is commonly meant the free concentration of one partner at which half of the binding sites on the other are occupied at equilibrium, for simple one-to-one binding.

In one assay the target is T1, human NL5_(ECTO) (NL4(Y)); …. Nature of the assay: SPR. A general note: SPR reads the build-up and loss of mass on a sensor chip optically.
Regarding B1, the affinity, expressed as Kd, was 23.2 µM.

B2 gave a Kd of 21.9 µM.

B3: the Kd was found to be 14.2 µM.

B4 yielded a Kd of 3.16 µM. Compared with the last molecule, the Kd is about 4.5-fold lower.

The target of the next assay is T2, human NL1(+A1–B)_(ECTO), immobilised …. Put plainly: SPR.
Consider B1, for which binding was put at a Kd of 2080 nM.

Molecule B2 returned a Kd of 1200 nM. This Kd lies about 1.7-fold lower than the previous one.

In the case of B3, the dissociation constant (Kd) worked out at 2820 nM.

B4 displayed a Kd of 766 nM. Compared with the last molecule, the Kd is about 3.7-fold lower.

For another assay, the target named is T3, human NL1(+A2–B)_(ECTO), immobilised …. Nature of the assay: SPR.
B1 showed a Kd of 3210 nM.

With B2, the Kd stood at 1460 nM.

For B3, the Kd amounted to 2750 nM. This Kd lies about 1.9-fold higher than the previous one.

In turn, B4 gave a Kd of 795 nM. This Kd lies about 3.5-fold lower than the previous one.

The target in the next assay is T4, human NL1(+A1+A2–B)_(ECTO), immobilised …. Nature of the assay: SPR.
Take B1: the Kd is 3050 nM.

B2 came in with a Kd of 1410 nM. This Kd is about 2.2-fold lower than that of the molecule before.

Molecule B3 displayed a Kd of 2710 nM.

Molecule B4 returned a Kd of 784 nM. Compared with the last molecule, the Kd is about 3.5-fold lower.

The values above are taken from paper PMC5563082 (2017).
